The text below walks through data of publication PMC4381924.

In general, stoichiometry N refers to a count of units in the complex or per binding partner.

Several values for one entry are separate records, joined by “and”; a condition that tells them apart may be missing. Identical values can stand only once.

Assay [1] deals with IGF1R ECD-TM-fp (human).
In assay [2] the target is IGF1R ECDΔL1-TM-fp (human). The assay is described as follows: FRET or BRET; quantitative imaging FRET (QI-FRET) in plasma-membrane vesicles derived from transiently co-transfected CHO cells; EYFP donor, mCherry acceptor; confocal microscopy at room temperature; intrinsic FRET corrected for proximity FRET and donor-to-acceptor ratio; without IGF1. A general note: Bioluminescence resonance energy transfer reports proximity on the nanometre scale.

Assay [3] deals with IGF1R TM-icd H905C (human). As to the kind of experiment: cross-linking; disulfide bond between introduced cysteines; HEK293 cells incubated with or without IGF1, lysed in RIPA buffer with 10 mM iodoacetamide; non-reducing against reducing SDS-PAGE, anti-IGF1Rβ Western blot.
Assay [4] concerns the target IGF1R ECD-TM-fp H905C (human). As to the kind of experiment: FRET or BRET; quantitative imaging FRET (QI-FRET) in plasma-membrane vesicles derived from transiently co-transfected CHO cells; EYFP donor, mCherry acceptor; confocal microscopy at room temperature; intrinsic FRET corrected for proximity FRET and donor-to-acceptor ratio; without IGF1.
Assay [5] deals with IGF1R ECD-TM-fp (human). The assay is described as follows: FRET or BRET; spectrally resolved two-photon FRET on living, serum-starved CHO cells; mTurquoise donor, EYFP acceptor; FRET efficiency per membrane pixel; with IGF1.
The target of assay [6] is IGF1R ECD-TM-fp (human). As to the kind of experiment: FRET or BRET; quantitative imaging FRET (QI-FRET) in plasma-membrane vesicles derived from transfected CHO cells; intrinsic FRET corrected for proximity FRET and donor-to-acceptor ratio; with IGF1.
For the next assay, the target named is IGF1R TM-fp (human). As to the kind of experiment: FRET or BRET; spectrally resolved two-photon FRET on living, serum-starved CHO cells; mTurquoise donor, EYFP acceptor; FRET efficiency per membrane pixel; without IGF1.

Chain of IGF1R ECD-TM-fp (P08069 741-935): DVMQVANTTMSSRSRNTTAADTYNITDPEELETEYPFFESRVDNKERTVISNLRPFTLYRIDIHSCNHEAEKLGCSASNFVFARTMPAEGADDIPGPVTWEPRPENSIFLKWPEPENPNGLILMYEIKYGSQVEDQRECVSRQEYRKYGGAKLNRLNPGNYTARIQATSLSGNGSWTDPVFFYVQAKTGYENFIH
Chain of IGF1 (P05019 49-118): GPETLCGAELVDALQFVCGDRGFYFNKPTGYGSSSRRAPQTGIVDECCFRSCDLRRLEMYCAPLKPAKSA

In the assay with IGF1R ECD-TM-fp (human) [1], “IGF1 (from UniProt P05019 49-118) (ligand)” yielded an FRET efficiency between co-transfected donor- and acceptor-tagged IGF1R ECD-TM-fp in membranes of live CHO cells, with against without ligand of 2 fold.

IGF1R ECDΔL1-TM-fp (domain or fragment): the intrinsic FRET efficiency (y intercept of a horizontal line) in assay [2] worked out at 0.36.

As to IGF1R TM-icd H905C (domain or fragment), the stoichiometry N in assay [3] worked out at 2.

Consider “IGF1R ECD-TM-fp H905C (domain or fragment)”, for which the intrinsic FRET efficiency (y intercept of a horizontal line) in assay [4] was 0.38.

In the assay with IGF1R ECD-TM-fp (human) [5], IGF1R ECD-TM-fp (domain or fragment) showed an FRET efficiency per membrane pixel (peak of a normal distribution) of 0.34. In the assay with IGF1R ECD-TM-fp (human) [6], the intrinsic FRET efficiency (y intercept of a horizontal line) is 0.34.

On to IGF1R TM-fp (domain or fragment), for which the FRET efficiency per membrane pixel (peak of a two state distribution) with IGF1R TM-fp (human) is 0.37 and 0.33.
